Laboratory results as given in patent US12030920 (IN3BIO, dated 2024).

Target: the molecule itself
Test: self-assembly of CT-B subunits, pH shift, SDS-PAGE and Western blot

B1: native CT-B protein (other)
chain: TPQNITDLCAEYHNTQIYTLNDKIFSYTESLAGKREMAIITFKNGAIFQVEVPGSQHIDSQKKAIERMKDTLRIAYLTEAKVEKLCVWNNKTPHAIAAISMAN
B1: binds.
